Measurements taken from patent US6995244 (OHIO STATE UNIVERSITY, dated 2006).

B1: ΔF50 human prolactin (ligand)
chain: MLPICPGGAARCQVTLRDLFDRAVVLSHYIHNLSSEMFSEFDKRYTHGRGITKAINSCHTSSLATPEDKEQAQQMNQKDFLSLIVSILRSWNEPLYHLVTEVRGMQEAPEAILSKAVEIEEQTKRLLEGMELIVSQVHPETKENEIYPVWSGLPSLQMADEESRLSAYYNLLHCLRRDSHKIDNYLKLLKCRIIHNNNC
B2: L98E human prolactin (ligand)
chain: MLPICPGGAARCQVTLRDLFDRAVVLSHYIHNLSSEMFSEFDKRYTHGRGFITKAINSCHTSSLATPEDKEQAQQMNQKDFLSLIVSILRSWNEPLYHEVTEVRGMQEAPEAILSKAVEIEEQTKRLLEGMELIVSQVHPETKENEIYPVWSGLPSLQMADEESRLSAYYNLLHCLRRDSHKIDNYLKLLKCRIIHNNNC
B3: F50E human prolactin (ligand)
chain: MLPICPGGAARCQVTLRDLFDRAVVLSHYIHNLSSEMFSEFDKRYTHGRGEITKAINSCHTSSLATPEDKEQAQQMNQKDFLSLIVSILRSWNEPLYHLVTEVRGMQEAPEAILSKAVEIEEQTKRLLEGMELIVSQVHPETKENEIYPVWSGLPSLQMADEESRLSAYYNLLHCLRRDSHKIDNYLKLLKCRIIHNNNC
B4: L95E human prolactin (ligand)
chain: MLPICPGGAARCQVTLRDLFDRAVVLSHYIHNLSSEMFSEFDKRYTHGRGFITKAINSCHTSSLATPEDKEQAQQMNQKDFLSLIVSILRSWNEPEYHLVTEVRGMQEAPEAILSKAVEIEEQTKRLLEGMELIVSQVHPETKENEIYPVWSGLPSLQMADEESRLSAYYNLLHCLRRDSHKIDNYLKLLKCRIIHNNNC
B5: L165E human prolactin (ligand)
chain: MLPICPGGAARCQVTLRDLFDRAVVLSHYIHNLSSEMFSEFDKRYTHGRGFITKAINSCHTSSLATPEDKEQAQQMNQKDFLSLIVSILRSWNEPLYHLVTEVRGMQEAPEAILSKAVEIEEQTKRLLEGMELIVSQVHPETKENEIYPVWSGLPSLQMADEESRESAYYNLLHCLRRDSHKIDNYLKLLKCRIIHNNNC
B6: Y169E human prolactin (ligand)
chain: MLPICPGGAARCQVTLRDLFDRAVVLSHYIHNLSSEMFSEFDKRYTHGRGFITKAINSCHTSSLATPEDKEQAQQMNQKDFLSLIVSILRSWNEPLYHLVTEVRGMQEAPEAILSKAVEIEEQTKRLLEGMELIVSQVHPETKENEIYPVWSGLPSLQMADEESRLSAYENLLHCLRRDSHKIDNYLKLLKCRIIHNNNC
B7: M158C human prolactin (ligand)
chain: MLPICPGGAARCQVTLRDLFDRAVVLSHYIHNLSSEMFSEFDKRYTHGRGFITKAINSCHTSSLATPEDKEQAQQMNQKDFLSLIVSILRSWNEPLYHLVTEVRGMQEAPEAILSKAVEIEEQTKRLLEGMELIVSQVHPETKENEIYPVWSGLPSLQCADEESRLSAYYNLLHCLRRDSHKIDNYLKLLKCRIIHNNNC
modifications: Cys 158 disulfide-coupled through a thiol to the dextran polymer of the SPR chip surface
notes: Recombinant, expressed in E. coli
B8: L171E human prolactin (ligand)
chain: MLPICPGGAARCQVTLRDLFDRAVVLSHYIHNLSSEMFSEFDKRYTHGRGFITKAINSCHTSSLATPEDKEQAQQMNQKDFLSLIVSILRSWNEPLYHLVTEVRGMQEAPEAILSKAVEIEEQTKRLLEGMELIVSQVHPETKENEIYPVWSGLPSLQMADEESRLSAYYNELHCLRRDSHKIDNYLKLLKCRIIHNNNC
B9: H173E human prolactin (ligand)
chain: MLPICPGGAARCQVTLRDLFDRAVVLSHYIHNLSSEMFSEFDKRYTHGRGFITKAINSCHTSSLATPEDKEQAQQMNQKDFLSLIVSILRSWNEPLYHLVTEVRGMQEAPEAILSKAVEIEEQTKRLLEGMELIVSQVHPETKENEIYPVWSGLPSLQMADEESRLSAYYNLLECLRRDSHKIDNYLKLLKCRIIHNNNC
B10: G129C human prolactin (ligand)
chain: MLPICPGGAARCQVTLRDLFDRAVVLSHYIHNLSSEMFSEFDKRYTHGRGFITKAINSCHTSSLATPEDKEQAQQMNQKDFLSLIVSILRSWNEPLYHLVTEVRGMQEAPEAILSKAVEIEEQTKRLLECMELIVSQVHPETKENEIYPVWSGLPSLQMADEESRLSAYYNLLHCLRRDSHKIDNYLKLLKCRIIHNNNC
modifications: Cys 129 disulfide-coupled through a thiol to the dextran polymer of the SPR chip surface
notes: Recombinant, E. coli

Columns and labels:
[1] = target: growth hormone receptor (FDC-P1 somatotrophic assay); assay: cell-based or functional assay
[2] = target: human prolactin receptor on transfected FDC-P1 cells (human) (UniProt P16471); assay: cell-based or functional assay
[3] = target: T1, human prolactin receptor on transfected FDC-P1 cells (human, UniProt P16471 25-622); assay: cell-based or functional assay
T1 sequence (looked up): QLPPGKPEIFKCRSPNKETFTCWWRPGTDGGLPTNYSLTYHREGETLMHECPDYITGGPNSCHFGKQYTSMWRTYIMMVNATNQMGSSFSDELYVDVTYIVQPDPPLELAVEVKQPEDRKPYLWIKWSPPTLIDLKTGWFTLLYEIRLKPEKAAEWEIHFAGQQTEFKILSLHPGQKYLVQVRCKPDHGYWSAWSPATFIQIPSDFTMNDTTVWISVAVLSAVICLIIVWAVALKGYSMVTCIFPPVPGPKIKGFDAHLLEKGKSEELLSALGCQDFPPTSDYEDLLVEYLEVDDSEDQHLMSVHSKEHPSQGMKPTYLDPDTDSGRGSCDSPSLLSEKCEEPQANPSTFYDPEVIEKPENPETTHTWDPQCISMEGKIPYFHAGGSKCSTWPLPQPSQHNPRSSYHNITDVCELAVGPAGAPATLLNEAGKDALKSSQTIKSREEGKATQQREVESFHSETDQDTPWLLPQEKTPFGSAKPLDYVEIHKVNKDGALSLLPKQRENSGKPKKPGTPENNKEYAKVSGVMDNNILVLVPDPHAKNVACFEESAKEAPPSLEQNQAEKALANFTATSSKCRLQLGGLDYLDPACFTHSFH

[4] = target: T2, extracellular domain of the human prolactin receptor (human, UniProt P16471 25-234); assay: SPR (BIACORE 3000), prolactin coupled to the chip through Cys 158, receptor ECD 50-800 nM, induced-fit model, site 1 (KD1)
T2 construct: extracellular domain; also called extracellular domain of the human lactogenic receptor; lactogenic receptor
T2 sequence (looked up): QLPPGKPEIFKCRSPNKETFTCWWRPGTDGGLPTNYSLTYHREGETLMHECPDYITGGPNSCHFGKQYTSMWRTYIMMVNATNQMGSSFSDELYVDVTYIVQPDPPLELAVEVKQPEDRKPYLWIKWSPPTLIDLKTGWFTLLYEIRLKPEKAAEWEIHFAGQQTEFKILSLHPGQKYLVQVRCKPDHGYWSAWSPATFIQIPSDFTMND
Procedure: (§1) The extracellular domain of the human lactogenic receptor was flowed across the prolactin-linked chip surface at various concentrations and the binding kinetics followed by the optical bench. Human lactogenic receptor (extracellular domain) concentrations varied between 50 nM and 800 nM. […] A single receptor model was used for G129C human prolactin, where site 2 was blocked by the chemistry employed to couple the protein to the chip surface.
(§2) Rate constants were calculated from the association and dissociation curves, respectively, with concentrations of the extracellular domain of the human lactogenic receptor (50, 80, 100, 200, 500 and 800 nM).

[5] = target: T2, extracellular domain of the human …; assay: SPR (BIACORE 3000), prolactin coupled to the chip through Cys 158, receptor ECD 50-800 nM, induced-fit model, site 1 (kd1); site 1 (kd1), prolactin coupled through Cys 158
Procedure: as §1, §2

[6] = target: T2, extracellular domain of the human …; assay: SPR (BIACORE 3000), prolactin coupled to the chip through Cys 158, receptor ECD 50-800 nM, induced-fit model, site 2 (ka2)
Procedure: as §1, §2

[7] = target: T2, extracellular domain of the human …; assay: SPR (BIACORE 3000), prolactin coupled to the chip through Cys 158, receptor ECD 50-800 nM, induced-fit model, site 1 (ka1)
Procedure: as §1, §2

[8] = target: T2, extracellular domain of the human …; assay: SPR (BIACORE 3000), prolactin coupled to the chip through Cys 158, receptor ECD 50-800 nM, induced-fit model, site 2 (KD2)
Procedure: as §1, §2

[9] = target: T2, extracellular domain of the human …; assay: SPR (BIACORE 3000), prolactin coupled to the chip through Cys 158, receptor ECD 50-800 nM, induced-fit model, site 2 (kd2)
Procedure: as §1, §2

[10] = target: T2, extracellular domain of the human …; assay: SPR, saturating equilibrium at 100 µM receptor ECD (FIG. 10, lower panel)
Procedure: Experiments were then performed in studies that measured the maximal binding of lactogenic receptor (the extracellular domain of the prolactin receptor prepared by recombinant DNA technology). The various prolactins were bound with high concentrations (100 μM) of extracellular domain of the human prolactin receptor.

[11] = target: T2, extracellular domain of the human …; assay: SPR (BIACORE 3000), prolactin coupled to the chip through residue 129 (site 2 blocked), receptor ECD 50-800 nM, single-site model, site 1 (ka1)
Procedure: as §1, §2

[12] = target: T2, extracellular domain of the human …; assay: SPR (BIACORE 3000), prolactin coupled to the chip through residue 129 (site 2 blocked), receptor ECD 50-800 nM, single-site model, site 1 (kd1)
Procedure: as §1, §2

[13] = target: T2, extracellular domain of the human …; assay: SPR (BIACORE 3000), prolactin coupled to the chip through residue 129 (site 2 blocked), receptor ECD 50-800 nM, single-site model, site 1 (KD1)
Procedure: as §1, §2

Molecule | ED50 (nM), FDC-P1 somatotrophic assay [1] [nM] | ED50 (nM), FDC-P1 lactogenic assay (cell proliferation, Alamar blue) [3] [nM] | Relative fold loss of activity, FDC-P1 lactogenic assay [3] [fold] | also measured
F44E human growth hormone (from UniProt P01241 27-217) (ligand) | 0.576 |  |  | 
L163A human growth hormone (from UniProt P01241 27-217) (ligand) | 0.13 |  |  | 
Y164E human growth hormone (from UniProt P01241 27-217) (ligand) | 0.151 |  |  | 
Y160E human growth hormone (from UniProt P01241 27-217) (ligand) | 0.186 |  |  | 
L93E human growth hormone (from UniProt P01241 27-217) (ligand) | 0.234 |  |  | 
wild-type recombinant human growth hormone (from UniProt P01241 27-217) (ligand) | 0.0712 |  |  | ED50 (nM), FDC-P1 lactogenic assay [2]: 1.76 nM
L163F human growth hormone (from UniProt P01241 27-217) (ligand) | 0.235 |  |  | 
B1 |  | 0.03 | 2.7 | 
B2 |  | 63.1 | 87.7 | 
B3 |  | 1 | 5 | 
B4 |  | 5.6 | 7.8 | 
B5 |  | 29.5 | 41 | 
B6 |  | 64.8 | 90 | 
B7 |  |  |  | Kd [4]: 109 nM; koff [5]: 0.00157 s⁻¹; kon [6]: 2560 M⁻¹ s⁻¹; kon [7]: 14300 M⁻¹ s⁻¹; Kd [8]: 153 nM; koff [9]: 0.00039 s⁻¹; stoichiometry (receptors bound to each prolactin) [10]: 2 receptors per prolactin
B8 |  | 5.7 | 8 | 
B9 |  | 1130 | 1570 | 
B10 |  |  |  | kon [11]: 19600 M⁻¹ s⁻¹; koff [12]: 0.00119 s⁻¹; Kd [13]: 60.5 nM; stoichiometry (receptors bound to each prolactin) [10]: ~1 receptors per prolactin
